This is an account of results in paper PMC7984254 (Biochimica et biophysica acta. Molecular cell research, 2020).

In this test the target is recombinant FGF14 protein (aa 64–252) (human, UniProt Q92915-2 64-252). Briefly: SPR. In general terms: Surface plasmon resonance follows binding to a sensor surface in real time, without labels.

The koff is a measure of how fast the partners let go of each other. Broadly, the kon is the rate constant with which the complex forms. As for KFKESVFENAYVIYSSMLYR (peptide, UniProt Q92915-2 149-168, looked up) [FGF14^Y158A mutant peptide], the koff was 0.158 s⁻¹ and the kon is 23200 M⁻¹ s⁻¹.
